The target in assay [1] is T1, CD73 on the surface of human cells (human, UniProt P21589 27-549).
T1 construct: whole, on cells; The cell line of each value is named under assay or readout; also called CD73 on the surface of tumor cells; CD73 enzyme on the surface of MDA-MB-231 cells
T1 sequence (looked up): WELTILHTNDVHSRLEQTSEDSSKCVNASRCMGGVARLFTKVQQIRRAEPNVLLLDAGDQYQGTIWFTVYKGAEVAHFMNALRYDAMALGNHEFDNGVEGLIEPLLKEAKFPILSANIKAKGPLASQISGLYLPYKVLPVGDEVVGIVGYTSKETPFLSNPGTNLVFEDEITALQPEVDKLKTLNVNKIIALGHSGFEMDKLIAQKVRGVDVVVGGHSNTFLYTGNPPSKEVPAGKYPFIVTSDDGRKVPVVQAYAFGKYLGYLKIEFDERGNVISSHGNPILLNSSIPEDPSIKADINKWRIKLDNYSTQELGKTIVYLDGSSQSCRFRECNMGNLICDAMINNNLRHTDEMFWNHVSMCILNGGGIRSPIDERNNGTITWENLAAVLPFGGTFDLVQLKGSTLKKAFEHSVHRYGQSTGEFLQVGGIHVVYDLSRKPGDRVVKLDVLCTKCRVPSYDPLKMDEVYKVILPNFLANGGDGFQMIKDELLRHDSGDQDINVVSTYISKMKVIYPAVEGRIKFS
In words: Flow cytometry on HCC44 cells, PE-labelled secondary antibody. The protocol: (§1) 100 μL of the test antibodies diluted from 10 μg/mL to 0.016 μg/mL in a 5-fold gradient were used as the primary antibodies, and were mixed with 1×10⁵ tumor cells suspended in 100 μL RPMI-1640 serum-free medium to make a final concentration of 5 μg/mL diluted to 0.008 μg/mL, and then incubated at 4° C. for 1 h. The cells were washed twice with PBS to remove unbound primary antibodies, and then the target cells were incubated with 200 μLPE-labeled secondary antibody at 2 μg/mL at 4° C. for 30 min. The cells were washed twice with PBS to remove unbound secondary antibodies, and finally the cells were resuspended in 200 μL PBS. The binding affinity of the test antibodies to CD73 on the surface of the corresponding cells was measured by flow cytometry.

Assay [2] concerns the target T2, extracellular domain of human CD73 protein, C-terminus polyhistidine-tagged (human, UniProt P21589 27-547).
T2 construct: also the immunogen; also called CD73-ECD; human CD73-ECD
T2 sequence: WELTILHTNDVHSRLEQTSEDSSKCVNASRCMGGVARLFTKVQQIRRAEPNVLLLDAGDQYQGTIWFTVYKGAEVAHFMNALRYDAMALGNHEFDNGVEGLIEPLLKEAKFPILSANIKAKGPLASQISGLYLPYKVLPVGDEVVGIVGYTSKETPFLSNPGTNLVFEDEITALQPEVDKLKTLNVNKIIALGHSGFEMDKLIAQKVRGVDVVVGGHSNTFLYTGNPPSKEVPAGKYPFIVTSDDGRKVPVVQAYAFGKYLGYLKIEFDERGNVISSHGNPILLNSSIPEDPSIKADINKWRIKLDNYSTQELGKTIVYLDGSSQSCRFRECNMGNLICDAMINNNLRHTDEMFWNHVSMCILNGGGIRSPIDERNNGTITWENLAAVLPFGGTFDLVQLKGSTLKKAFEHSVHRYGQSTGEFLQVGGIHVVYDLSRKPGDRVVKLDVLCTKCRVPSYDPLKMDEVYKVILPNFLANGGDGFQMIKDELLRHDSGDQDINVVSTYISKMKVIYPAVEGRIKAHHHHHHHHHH
Put plainly: ELISA, coated CD73-ECD, protein A-HRP. The protocol: (§2) The CD73 protein extracellular region (CD73-ECD) was diluted to 1 μg/mL using the coating solution, and an ELISA plate was coated at 100 μL/well at 4° C. overnight. Excess antigens were washed away, and the plate was blocked with 1% BSA at room temperature for 2 hours. Then, 5-fold gradient dilutions of each monoclonal antibody were added at 100 μL/well and incubated at room temperature for 1 hour. Unbound antibodies were washed away, and an appropriate concentration of Staphylococcal protein A labeled with horseradish peroxidase was added at 100 μL/well and incubated at room temperature for 0.5 hours. Unbound secondary antibodies were washed away, and TMB color development solution was added to react for about 15 minutes. 1M HCL was added at 50 µL/well to terminate the color development reaction, and then the absorbance was measured at 450 nm and the data was analyzed.

Assay [3] deals with T1, CD73 on the surface of human cells. Put plainly: Flow cytometry on SW1573 cells, PE-labelled secondary antibody [panel A]. On the procedure:
as §1

For assay [4] the target is unchanged. In words: Flow cytometry on PC9 cells, PE-labelled secondary antibody [panel A]. The protocol: as §1
Assay [5] has the same target. Put plainly: flow cytometry on SW1573 cells. The protocol: as §1
Assay [6] shares this target. Put plainly: Flow cytometry on MDA-MB-231 cells, PE-labelled secondary antibody [panel A]. The protocol: as §1
Assay [7] has as its target T2, extracellular domain of human CD73 …. Put plainly: SPR as the filing names it (ForteBio OCTET R2); antibody on Protein A sensor, CD73-ECD in solution, 25 C. The protocol: Surface plasmon resonance (SPR) assay: Protein A sensor was used to immobilize the antibodies, with an immobilization height of about 1.5 nM. […] Affinity detection: equilibrium for 60 s, binding for 180 s, dissociation for 180 s, at a detection temperature of 25° C. Kinetic characterization analysis was performed using the ForteBio OCTET R2 system.

Assay [8] concerns the target T1, CD73 on the surface of human cells. Put plainly: Flow cytometry on NCI-H1299 cells. On the procedure:
as §1
The binding affinity of the humanized antibodies to NCI-H1299 cells was detected according to the method for determining the binding affinity of CD73 on the surface of tumor cells in Example 5.

Assay [9] shares this target. Put plainly: Flow cytometry on NCI-H1373 cells, PE-labelled secondary antibody [panel B]. On the procedure:
as §1

For assay [10], the target named is T2, extracellular domain of human CD73 …. Put plainly: ELISA on CD73-ECD, 0.8 µL supernatant of antibody expression, second of two readings; PBS 0.19, 0.18. The protocol: as §2
CD73 antigen ELISA binding affinity test was performed according to the method of Example 3.

B1: chimeric nanobody 3-D7 (Fc fusion)
VHH: QRQLVESGGGLVQPGGSLRLSCAASGFLLDYYVIGWFRQAPGKEREGVSCISGSDRSTYYADSVKGRFTISRDNAKNTVYLQMNSLKPEDTAVYFCAADPSPVTVQAMCLPRFPVPYWGQGTQVTVST
notes: Human-alpaca chimeric antibody (VHH on hIgG1 Fc); Only the VHH is tied to the tested molecule; 37-39 exist for 3-D7-FC1/FC2/FC3; also called original antibody 3-D7
Turning to B1, the “Max MFI” value in assay [1] worked out at 135000 MFI; in [3] it was 71000 MFI; in assay [4], 58800 MFI; in assay [6] it was 69600 MFI; in assay [8] it was 105000 MFI; in [9], 200000 MFI. The concentration giving a half-maximal response (EC50) was determined as 0.0135 µg/mL in assay [2] and 0.116 µg/mL in assay [5]. Besides, binding in assay [7] was put at a Kd of 2 nM.

B2: chimeric nanobody 4-D04 (Fc fusion)
VHH: QLQLVESGGGLVQPGGSLRLSCAASGFTLDYYNIGWFRQAPGKEREGVSCISSSEGSTYYADSVKGRFTISRDNAKNTVYLQMNSLKPEDTAVYYCAADRYYYCSLHVSQYDYWGQGTLVTVSS
notes: Human-alpaca chimeric antibody
For B2, the “Max MFI” value in assay [1] amounted to 145000 MFI; in assay [3] it was 71300 MFI; in assay [4] it was 65000 MFI; in [6], 79300 MFI; in assay [9] it was 220000 MFI. In addition, the half-maximal effective concentration (EC50) in assay [2] stood at 0.00267 µg/mL; in [5], 0.067 µg/mL. The same molecule yielded a Kd in assay [7] of 0.919 nM.

B3: chimeric nanobody 5-E11 (Fc fusion)
VHH: ALQLVESGGGLVQPGGSLRLSCEVSGFTLDYYNIGWFRQAPGKEREGVSCSSNSGGSTYYADSVKGRFTISRDNAKNTVYLQMNSLKPEDTGVYYCAAYRGWHPSLDARVYDYWGQGTEVTVSS
notes: Human-alpaca chimeric antibody (VHH on hIgG1 Fc); Only the VHH is tied to the tested molecule; also called original antibody 5-E11
Consider B3, for which the “Max MFI” value turned out to be 130000 MFI in [1]; 69600 MFI in [3]; 58900 MFI in assay [4]; 64500 MFI in assay [6]; 191000 MFI in [9]. Also, the EC50 in assay [2] worked out at 0.00872 µg/mL. Moreover, the “ELISA reading (not named on the sheet)” value in assay [10] worked out at 4.16. The Kd in assay [7] was 0.826 nM.

B4: chimeric nanobody 4-B02 (Fc fusion)
VHH: EVQLVESGGGLVQPGGSLRLSCAASGFPLDYYSIGWFRQAPGKEREGVSCIGSSDGSTYYADSVKGRFTISRDNAENTVWLQMNSLKPEDTAVYYCAALKYYYCSGHEAIYDYWGQGTQVTVSG
notes: as for B2
For B4, the “Max MFI” value in assay [1] was found to be 136000 MFI; in [3], 73800 MFI; in assay [4], 61600 MFI; in [6] it was 69500 MFI; in [9], 206000 MFI. In addition, the EC50 in [2] was found to be 0.00303 µg/mL; in [5], 0.061 µg/mL. The molecule further returned an equilibrium dissociation constant (Kd) in assay [7] of 0.795 nM.
